Test results published in paper PMC11275766 (bioRxiv, 2024).

Target: ancestral SARS-CoV-2 RBD (recombinant, ELISA antigen) (SARS-CoV-2 ancestral (Wuhan-Hu-1/WA.1), UniProt P0DTC2)
Assay: ELISA

B1: M2 mAb (human IgG1) (antibody, V domains shown)
VH: QLQESGPGLVKPSEILSLTCSVSGGSINTNMYYWGWIRQPPGKGLEWIGSIYYSGTTYYNPSLKSRVTMSVDTSENQFSLKLTSVTAADTSVYFCARLPLGERIDYWGRGTLVTVSS
VL: SSDLTQPPSVSVSPGQTASITCSGNKLGDTYVFWYQQKPGQSPVAVINEDNKRPSGIPERFSGSNSGNTATLTISGTQTMDEADYYCQVWDSSQMVFGGGTKLTVL
  binding result: no binding (tested: 30 μg/mL)
